{"source": "paper PMC8410870", "about": "“Reconstitution defines the roles of p62, NBR1 and TAX1BP1 in ubiquitin condensate formation and autophagy initiation” (Nature Communications, 2021)", "binders": {"B1": {"name": "6xHis-Strep-TEV-GFP-NBR1 (natural protein, human, UniProt Q14596 1-966, looked up)", "chain": "MEPQVTLNVTFKNEIQSFLVSDPENTTWADIEAMVKVSFDLNTIQIKYLDEENEEVSINSQGEYEEALKMAVKQGNQLQMQVHEGHHVVDEAPPPVVGAKRLAARAGKKPLAHYSSLVRVLGSDMKTPEDPAVQSFPLVPCDTDQPQDKPPDWFTSYLETFREQVVNETVEKLEQKLHEKLVLQNPSLGSCPSEVSMPTSEETLFLPENQFSWHIACNNCQRRIVGVRYQCSLCPSYNICEDCEAGPYGHDTNHVLLKLRRPVVGSSEPFCHSKYSTPRLPAALEQVRLQKQVDKNFLKAEKQRLRAEKKQRKAEVKELKKQLKLHRKIHLWNSIHGLQSPKSPLGRPESLLQSNTLMLPLQPCTSVMPMLSAAFVDENLPDGTHLQPGTKFIKHWRMKNTGNVKWSADTKLKFMWGNLTLASTEKKDVLVPCLKAGHVGVVSVEFIAPALEGTYTSHWRLSHKGQQFGPRVWCSIIVDPFPSEESPDNIEKGMISSSKTDDLTCQQEETFLLAKEERQLGEVTEQTEGTAACIPQKAKNVASERELYIPSVDLLTAQDLLSFELLDINIVQELERVPHNTPVDVTPCMSPLPHDSPLIEKPGLGQIEEENEGAGFKALPDSMVSVKRKAENIASVEEAEEDLSGTQFVCETVIRSLTLDAAPDHNPPCRQKSLQMTFALPEGPLGNEKEEIIHIAEEEAVMEEEEDEEDEEEEDELKDEVQSQSSASSEDYIIILPECFDTSRPLGDSMYSSALSQPGLERGAEGKPGVEAGQEPAEAGERLPGGENQPQEHSISDILTTSQTLETVPLIPEVVELPPSLPRSSPCVHHHGSPGVDLPVTIPEVSSVPDQIRGEPRGSSGLVNSRQKSYDHSRHHHGSSIAGGLVKGALSVAASAYKALFAGPPVTAQPIISEDQTAALMAHLFEMGFCDRQLNLRLLKKHNYNILQVVTELLQLNNNDWYSQRY", "notes": "NBR1, human, ORF amplified from HeLa cells cDNA; called full-length NBR1 in the results; Tag ends are read from the construct's name; a TEV site lies between Strep and GFP, cleavage is not mentioned; also called GFP-NBR1 WT; full-length NBR1; source: Sf9, purified (HisTrap, SEC on Superose 6); not shown: GFP, N-terminal, kept"}}, "experiment_in_all_cases": "pull-down; microscopy-based protein-protein interaction assay: GST-tagged bait saturated on Glutathione Sepharose 4B beads, fluorescent prey at 2 µM, 25 mM HEPES pH 7.5, 150 mM NaCl, 1 mM DTT, 30 min-1 h at room temperature, beads imaged at the equilibrium by confocal microscopy", "conditions_in_all_cases": "both partners purified", "key": {"GST-FIP200": {"target": "T1, GST-FIP200 (UniProt Q8TDY2 1-1594)", "T1 construct": "FIP200, insect codon-optimized gene purchased from GenScript; The tag's end is read from the construct's name; In the functional rows on condensates the protein added was FIP200-GFP (GST cleaved off GST-FIP200-GFP with 3C protease); source: Sf9, purified (Glutathione Sepharose 4B, SEC on Superose 6 Increase); not shown: GST, N-terminal, kept"}, "[1]": {"target": "T2, GST fused to four M1-linked ubiquitin moieties (GST-4xUb) (UniProt P0CG48 1-76; P0CG48 1-76; P0CG48 1-76; P0CG48 1-76)", "T2 construct": "ubiquitin, first of four M1-linked (head-to-tail) moieties; ubiquitin, second of four M1-linked (head-to-tail) moieties; ubiquitin, third of four M1-linked (head-to-tail) moieties; ubiquitin, fourth of four M1-linked (head-to-tail) moieties; The tag's end is read from the construct's name; not shown: GST, N-terminal, kept", "T2 sequence (P0CG48 1-304, one chain of several)": "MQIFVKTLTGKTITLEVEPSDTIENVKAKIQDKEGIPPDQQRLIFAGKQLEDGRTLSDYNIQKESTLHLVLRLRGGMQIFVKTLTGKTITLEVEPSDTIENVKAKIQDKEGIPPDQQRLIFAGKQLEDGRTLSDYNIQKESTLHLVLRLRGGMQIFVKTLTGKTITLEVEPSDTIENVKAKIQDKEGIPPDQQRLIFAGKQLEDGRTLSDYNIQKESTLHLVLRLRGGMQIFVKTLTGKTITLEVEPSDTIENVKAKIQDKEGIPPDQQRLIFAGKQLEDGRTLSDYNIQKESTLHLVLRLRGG"}, "6xHis-Strep-TEV-GFP-NBR1": {"target": "B1"}}}
{"binder": "B1", "values": [{"measurement": "binding result", "setting": "GST-FIP200", "result": "binds"}, {"measurement": "binding result", "setting": "[1]", "result": "binds"}]}
{"binder": "GST-FIP200 Claw (aa 1494-1594) (domain or fragment, UniProt Q8TDY2 1494-1594, looked up, FIP200 Claw domain, aa 1494-1594; The tag's end is read from the construct's name; also called Claw domain of FIP200; source: expressed and purified as the GST-FIP200 CTR construct (previously described); not shown: GST, N-terminal, kept) EKIAIRDFQVGDLVLIILDERHDNYVLFTVSPTLYFLHSESLPALDLKPGEGASGASRRPWVLGKVMEKEYCQAKKAQNRFKVPLGTKFYRVKAVSWNKKV", "values": [{"measurement": "binding result", "setting": "6xHis-Strep-TEV-GFP-NBR1", "result": "binds"}]}
